Changes are numbered by the printed parent chain. Names may count otherwise.
B1: K375D: ADA2 variant SEQ ID NO:23 (protein)
chain: IDETRAHLLLKEKMMRLGGRLVLNTKEELANERLMTLKIAEMKEAMRTLIFPPSMHFFQAKHLIERSQVFNILRMMPKGAALHLHDIGIVTMDWLVRNVTYRPHCHICFTPRGIMQFRFAHPTPRPSEKCSKWILLEDYRKRVQNVTEFDDSLLRNFTLVTQHPEVIYTNQNVVWSKFETIFFTISGLIHYAPVFRDYVFRSMQEFYEDNVLYMEIRARLLPVYELSGEHHDEEWSVKTYQEVAQKFVETHPEFIGIKIIYSDHRSKDVAVIAESIRMAMGLRIKFPTVVAGFDLVGHEDTGHSLHDYKEALMIPAKDGVKLPYFFHAGETDWQGTSIDRNILDALMLNTTRIGHGFALSKHPAVRTYSWKDDIPIEVCPISNQVLKLVSDLRNHPVATLMATGHPMVISSDDPAMFGAKGLSYDFYEVFMGIGGMKADLRTLKQLAMNSIKYSTLLESEKNTFMEIWKKRWDKFIADVATK
modifications: human ADA2 K372D, mature numbering
B2: K375E: ADA2 variant SEQ ID NO:24 (protein)
chain: B1 chain with D372E
modifications: human ADA2 K372E, mature numbering
B3: K455E: ADA2 variant SEQ ID NO:27 (protein)
chain: B1 chain with D372K, K452E
modifications: human ADA2 K452E, mature numbering
B4: R369E: ADA2 variant SEQ ID NO:33 (protein)
chain: B1 chain with R366E, D372K
modifications: human ADA2 R366E, mature numbering
B5: R23A/K374A: ADA2 variant SEQ ID NO:57 (protein)
chain: B1 chain with R20A, K371A, D372K
modifications: human ADA2 R20A/K371A, mature numbering
B6: K14A/K374A: ADA2 variant SEQ ID NO:58 (protein)
chain: B1 chain with K11A, K371A, D372K
modifications: human ADA2 K11A/K371A, mature numbering

Experiment: Heparin binding ELISA (heparin coated microtiter plate)
Conditions: Set 1; 3 μM protein
Procedure: A 96-well plate was coated with 100 μL of 200 μg/mL heparin sodium salt (Calibochem, EMD Milipore, Billerica, Mass.; Cat. No. 375095) in Na2CO3 buffer (pH 9.6), overnight at 4° C. The wells were blocked with 5% milk in PBS, and washed 6 times with PBS. 3 μM of select rHuADA2 variants (see Table 20), WT rHuADA2 (positive control) and WT rHuADA1 (negative control) were added to the wells individually and incubated for 2 hours at room temperature, followed by washing 6 times with PBS. 100 μL of 1:1000 diluted horseradish peroxidase (HRP)-anti-FLAG antibody (Abcam, Cambridge, UK; Cat. No. Ab1238) was added to the wells to detect binding and incubated at room temperature for 1 hour. The ELISA reactions were developed by adding the 3,3′,5,5′-Tetramethylbenzidine (TMB) substrate solution (Pierce, Thermo Fisher Scientific, Rockford, Ill.) according the manufacturer's instructions and reading the optical density at 450 nm (OD450) on a plate reader.

Molecule	Average OD450, heparin binding ELISA
B1	0.2
B2	0.21

Same assay, conditions: Set 2; 3 μM protein

Molecule	Average OD450, heparin binding ELISA
B3	0.26
B4	0.18
B5	0.17

Experiment: Adenosine deaminase (ADA) enzymatic activity assay kit
Assay type: biochemical
Conditions: not given

Molecule	enzymatic activity relative to WT rHuADA2
B1	improved enzymatic activity
B2	improved enzymatic activity
B3	improved enzymatic activity
B4	improved enzymatic activity

Same assay, conditions: protein diluted to 5 μg/mL, serially diluted 2 fold (Table 21)

Molecule	adenosine deaminase activity mU/mL	ΔA/min, adenosine deaminase activity
B1	123.5 mU/mL	53.7
B2	108.1 mU/mL	47
B3	127.3 mU/mL	55.4
B4	115.9 mU/mL	50.4
B5	117.6 mU/mL	51.1
B6	78.4 mU/mL	34.1

Same assay, conditions: relative to rHuADA2 WT (Table 21)

Molecule	% activity vs. WT
B1	158.3%
B2	138.6%
B3	163.2%
B4	148.5%
B5	150.7%
B6	100.5%

Experiment: Heparin-affinity chromatography (heparin-Sepharose, SDS-PAGE)
Assay type: binding
Conditions: not given
Procedure: To assess binding of variants to heparin, heparin-affinity chromatography was employed to identify heparin-bound variants. Heparin binding was tested by mixing 35 μL of rHuADA2 WT and variants with 20 μL heparin-Sepharose™ resin (GE Healthcare, Pittsburgh, Pa.; Cat. No. 17-0998-01), followed by incubating at room temperature for 30 min. The mixture was then centrifuged through a 0.22 μm centrifuge filter and the flow-through, containing the unbound protein, was collected for analysis on an SDS-PAGE gel. 35 μL of 1.5 M NaCl was added to heparin-Sepharose resin and incubated at room temperature (RT) for 10 min to elute the remaining heparin-bound protein from the heparin-Sepharose. Samples of purified WT rHuADA2 and tested variants, before and after mixing with the heparin-Sepharose resin, were analyzed by SDS-PAGE to compare the degree of heparin binding.

Molecule	heparin binding compared to WT
B1	attenuated heparin binding
B2	attenuated heparin binding
B3	attenuated heparin binding
B4	attenuated heparin binding

Same assay, conditions: compared to WT rHuADA2; 0.3 mg/mL protein

Molecule	Heparin Column Binding
B1	Reduced
B2	Reduced
B3	Reduced
B4	Reduced
B5	Reduced
B6	Reduced
